Molecular target: Skp1-FBW7 complex (UniProt Q969H0)
Assay: ITC; MicroCal VP-ITC, 30 °C, 50 mM phosphate buffer pH 7.4; cell: 15 μM Skp1-FBW7 complex (1400 μL); syringe: 300 μM FIR∆exon2, 25 injections of 10 μL

UniProt Q969H0, sequence (Q969H0 whole entry, chain 1 of 2): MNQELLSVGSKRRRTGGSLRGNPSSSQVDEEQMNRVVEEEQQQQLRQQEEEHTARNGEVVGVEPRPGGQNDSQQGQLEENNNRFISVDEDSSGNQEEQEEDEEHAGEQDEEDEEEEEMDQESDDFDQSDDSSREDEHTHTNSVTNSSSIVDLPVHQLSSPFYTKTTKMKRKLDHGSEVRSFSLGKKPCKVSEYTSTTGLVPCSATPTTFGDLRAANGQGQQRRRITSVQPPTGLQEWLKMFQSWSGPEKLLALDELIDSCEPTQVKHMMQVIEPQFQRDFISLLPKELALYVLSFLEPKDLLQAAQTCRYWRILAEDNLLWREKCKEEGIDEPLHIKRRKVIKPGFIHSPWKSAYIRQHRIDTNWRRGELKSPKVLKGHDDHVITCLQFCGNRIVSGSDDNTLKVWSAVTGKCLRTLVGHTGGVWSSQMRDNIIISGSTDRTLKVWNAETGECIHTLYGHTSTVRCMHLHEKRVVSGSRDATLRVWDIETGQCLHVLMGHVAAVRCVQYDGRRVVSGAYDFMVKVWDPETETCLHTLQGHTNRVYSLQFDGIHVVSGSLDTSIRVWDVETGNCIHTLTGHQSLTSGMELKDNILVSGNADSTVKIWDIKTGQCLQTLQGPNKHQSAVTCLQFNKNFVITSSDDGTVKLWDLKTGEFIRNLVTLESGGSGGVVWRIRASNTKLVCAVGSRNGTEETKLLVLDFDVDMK
UniProt Q969H0, sequence (P63208 whole entry, chain 2 of 2, further chain): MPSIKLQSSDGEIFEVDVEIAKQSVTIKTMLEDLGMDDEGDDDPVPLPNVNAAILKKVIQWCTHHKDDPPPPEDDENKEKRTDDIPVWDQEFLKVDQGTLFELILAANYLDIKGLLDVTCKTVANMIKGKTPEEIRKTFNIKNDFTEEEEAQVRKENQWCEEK

## FIR∆exon2 (recombinant, Nus-tag cleaved) (natural protein)
  Ka: > 108 M⁻¹
